Measurements taken from US20220380457A1.

Target: FcγRIIIA (CD16α) on human NK cells in whole blood (human) (UniProt P08637)
Assay: cell-based or functional assay

Chain of UniProt P08637 (P08637 17-254): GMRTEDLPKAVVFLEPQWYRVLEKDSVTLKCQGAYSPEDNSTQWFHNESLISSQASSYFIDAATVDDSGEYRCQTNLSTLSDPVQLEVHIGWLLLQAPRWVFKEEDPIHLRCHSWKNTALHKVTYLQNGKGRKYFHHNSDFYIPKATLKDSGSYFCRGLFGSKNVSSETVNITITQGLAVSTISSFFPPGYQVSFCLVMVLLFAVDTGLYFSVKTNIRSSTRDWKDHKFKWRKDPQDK

NK cell activation in whole human blood, CD16/CD62L staining, FIG. 11A control row, left lower quadrant (downregulation of CD16α): 45.2
NK cell activation in whole human blood, CD107α/CD69 staining, FIG. 11B control row, right upper quadrant (upregulation of CD107α): 35.3
NK cell activation with IdeZ, FIG. 11A IdeZ row, left lower quadrant: 8.8
NK cell activation with IdeZ, FIG. 11B IdeZ row, right upper quadrant: 1.9
depletion of CD19(+) B cells with IdeZ against WT rituximab in control blood: 63%
residual CD19(+) B cells in blood with IdeZ, FIG. 11C IdeZ row, right lower quadrant: 9.8
Substance: WT rituximab (soluble antibody, wild type hinge)
